According to article PMC11574045, “A cofactor-induced repressive type of transcription factor condensation can be induced by synthetic peptides to suppress tumorigenesis” (The EMBO Journal, 2024):

system: HEK293FT cells transfected with TF library; assay: Screening of TF condensates based on fluorescent puncta; type: cell-based; conditions: Figure 1B numerical data; TF library screen, one value per transcriptional factor
Outline: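 Puncta scoring used automated confocal imaging of fifty random fields per well, after anti-Flag or anti-GAL4 immunofluorescence (Alexa 488) in PFA-fixed cells. HEK293FT cells carried TF library plasmids delivered with PEI (1.6 μg/ml DNA). At 60 h they were switched for 12 h to glucose-containing or glucose-free medium.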

Molecule	Z score of condensed fraction
TLE2 (protein, UniProt Q04725 1-743, looked up) Transducin-like enhancer …: MYPQGRHPTPLQSGQPFKFSILEICDRIKEEFQFLQAQYHSLKLECEKLASEKTEMQRHYVMYYEMSYGLNIEMHKQAEIVKRLSGICAQIIPFLTQEHQQQVLQAVERAKQVTVGELNSLIGQQLQPLSHHAPPVPLTPRPAGLVGGSATGLLALSGALAAQAQLAAAVKEDRAGVEAEGSRVERAPSRSASPSPPESLVEEERPSGPGGGGKQRADEKEPSGPYESDEDKSDYNLVVDEDQPSEPPSPATTPCGKVPICIPARRDLVDSPASLASSLGSPLPRAKELILNDLPASTPASKSCDSSPPQDASTPGPSSASHLCQLAAKPAPSTDSVALRSPLTLSSPFTTSFSLGSHSTLNGDLSVPSSYVSLHLSPQVSSSVVYGRSPVMAFESHPHLRGSSVSSSLPSIPGGKPAYSFHVSADGQMQPVPFPSDALVGAGIPRHARQLHTLAHGEVVCAVTISGSTQHVYTGGKGCVKVWDVGQPGAKTPVAQLDCLNRDNYIRSCKLLPDGRSLIVGGEASTLSIWDLAAPTPRIKAELTSSAPACYALAVSPDAKVCFSCCSDGNIVVWDLQNQTMVRQFQGHTDGASCIDISDYGTRLWTGGLDNTVRCWDLREGRQLQQHDFSSQIFSLGHCPNQDWLAVGMESSNVEILHVRKPEKYQLHLHESCVLSLKFASCGRWFVSTGKDNLLNAWRTPYGASIFQSKESSSVLSCDISRNNKYIVTGSGDKKATVYEVVY	0.1994
TOB1 (protein, UniProt P50616 1-345, looked up) Protein Tob1: MQLEIQVALNFIISYLYNKLPRRRVNIFGEELERLLKKKYEGHWYPEKPYKGSGFRCIHIGEKVDPVIEQASKESGLDIDDVRGNLPQDLSVWIDPFEVSYQIGEKGPVKVLYVDDNNENGCELDKEIKNSFNPEAQVFMPISDPASSVSSSPSPPFGHSAAVSPTFMPRSTQPLTFTTATFAATKFGSTKMKNSGRSNKVARTSPINLGLNVNDLLKQKAISSSMHSLYGLGLGSQQQPQQQQQPAQPPPPPPPPQQQQQQKTSALSPNAKEFIFPNMQGQGSSTNGMFPGDSPLNLSPLQYSNAFDVFAAYGGLNEKSFVDGLNFSLNNMQYSNQQFQPVMAN	-0.3688
TOX (protein, UniProt O94900 1-526, looked up) Thymocyte …: MDVRFYPPPAQPAAAPDAPCLGPSPCLDPYYCNKFDGENMYMSMTEPSQDYVPASQSYPGPSLESEDFNIPPITPPSLPDHSLVHLNEVESGYHSLCHPMNHNGLLPFHPQNMDLPEITVSNMLGQDGTLLSNSISVMPDIRNPEGTQYSSHPQMAAMRPRGQPADIRQQPGMMPHGQLTTINQSQLSAQLGLNMGGSNVPHNSPSPPGSKSATPSPSSSVHEDEGDDTSKINGGEKRPASDMGKKPKTPKKKKKKDPNEPQKPVSAYALFFRDTQAAIKGQNPNATFGEVSKIVASMWDGLGEEQKQVYKKKTEAAKKEYLKQLAAYRASLVSKSYSEPVDVKTSQPPQLINSKPSVFHGPSQAHSALYLSSHYHQQPGMNPHLTAMHPSLPRNIAPKPNNQMPVTVSIANMAVSPPPPLQISPPLHQHLNMQQHQPLTMQQPLGNQLPMQVQSALHSPTMQQGFTLQPDYQTIINPTSTAAQVVTQAMEYVRSGCRNPPPQPVDWNNDYCSSGGMQRDKALYLT	-0.4918
TOX2 (protein, UniProt Q96NM4 1-488, looked up) TOX high mobility group box …: MQQTRTEAVAGAFSRCLGFCGMRLGLLLLARHWCIAGVFPQKFDGDSAYVGMSDGNPELLSTSQTYNGQSENNEDYEIPPITPPNLPEPSLLHLGDHEASYHSLCHGLTPNGLLPAYSYQAMDLPAIMVSNMLAQDSHLLSGQLPTIQEMVHSEVAAYDSGRPGPLLGRPAMLASHMSALSQSQLISQMGIRSSIAHSSPSPPGSKSATPSPSSSTQEEESEVHFKISGEKRPSADPGKKAKNPKKKKKKDPNEPQKPVSAYALFFRDTQAAIKGQNPSATFGDVSKIVASMWDSLGEEQKQSSPDQGETKSTQANPPAKMLPPKQPMYAMPGLASFLTPSDLQAFRSGASPASLARTLGSKSLLPGLSASPPPPPSFPLSPTLHQQLSLPPHAQGALLSPPVSMSPAPQPPVLPTPMALQVQLAMSPSPPGPQDFPHISEFPSSSGSCSPGPSNPTSSGDWDSSYPSGECGISTCSLLPRDKSLYLT	2.501
TRERF1 (protein, UniProt Q96PN7 1-1200, looked up) Transcriptional-regulating …: MGDQQLYKTNHVAHGSENLFYQQPPLGVHSGLNHNYGNAVTGGGMDAPQASPISPHFPQDTRDGLGLPVGSKNLGQMDTSRQGGWGSHAGPGNHVQLRGNLANSNMMWGAPAQAEPTDGYQYTYSQASEIRTQKLTSGVLHKLDSFTQVFANQNLRIQVNNMAQVLHTQSAVMDGAPDSALRQLLSQKPMEPPAPAIPSRYQQVPQQPHPGFTGGLSKPALQVGQHPTQGHLYYDYQQPLAQVPVQGGQPLQAPQMLSQHMQQMQQHQYYPPQQQQQAGQQRISMQEIQTQPQQIRPSQPQPPPQQQQPQQLQLQQRQGSMQIPQYYQPQPMMQHLQEQQQQQMHLQPPSYHRDPHQYTPEQAHTVQLIPLGSMSQYYYQEPQQPYSHPLYQQSHLSQHQQREDSQLKTYSSDRQAQAMLSSHGDLGPPDTGMGDPASSDLTRVSSTLPHRPLLSPSGIHLNNMGPQHQQLSPSAMWPQMHLPDGRAQPGSPESSGQPKGAFGEQFDAKNKLTCSICLKEFKNLPALNGHMRSHGGMRASPNLKQEEGEKVLPPQPQPPLPPPPPPPPPPQLPPEAESLTPMVMPVSVPVKLLPPKPSSQGFTNSTVAAPSARDKPASSMSDDEMPVLEIPRKHQPSVPKAEEPLKTVQEKKKFRHRPEPLFIPPPPSYNPNPAASYSGATLYQSQLRSPRVLGDHLLLDPTHELPPYTPPPMLSPVRQGSGLFSNVLISGHGPGAHPQLPLTPLTPTPRVLLCRSNSIDGSNVTVTPGPGEQTVDVEPRINIGLRFQAEIPELQDISALAQDTHKATLVWKPWPELENHDLQQRVENLLNLCCSSALPGGGTNSEFALHSLFEAKGDVMVALEMLLLRKPVRLKCHPLANYHYAGSDKWTSLERKLFNKALATYSKDFIFVQKMVKSKTVAQCVEYYYTWKKIMRLGRKHRTRLAEIIDDCVTSEEEEELEEEEEEDPEEDRKSTKEEESEVPKSPEPPPVPVLAPTEGPPLQALGQPSGSFICEMPNCGAVFSSRQALNGHARIHGGTNQVTKARGAIPSGKQKPGGTQSGYCSVKSSPSHSTTSGETDPTTIFPCKECGKVFFKIKSRNAHMKTHRQQEEQQRQKAQKAAFAAEMAATIERTTGPVGAPGLLPLDQLSLIKPIKDVDILDDDVVQQLGGVMEEAEVVDTDLLLDDQDSVLLQGDAEL	-0.901
TRIB3 (protein, UniProt Q96RU7 1-358, looked up) Tribbles homolog 3: MRATPLAAPAGSLSRKKRLELDDNLDTERPVQKRARSGPQPRLPPCLLPLSPPTAPDRATAVATASRLGPYVLLEPEEGGRAYQALHCPTGTEYTCKVYPVQEALAVLEPYARLPPHKHVARPTEVLAGTQLLYAFFTRTHGDMHSLVRSRHRIPEPEAAVLFRQMATALAHCHQHGLVLRDLKLCRFVFADRERKKLVLENLEDSCVLTGPDDSLWDKHACPAYVGPEILSSRASYSGKAADVWSLGVALFTMLAGHYPFQDSEPVLLFGKIRRGAYALPAGLSAPARCLVRCLLRREPAERLTATGILLHPWLRQDPMPLAPTRSHLWEAAQVVPDGLGLDEAREEEGDREVVLYG	-0.9785
TRIM32 (protein, UniProt Q8CH72 1-655, looked up) E3 ubiquitin-protein ligase …: MAAAAAASHLNLDALREVLECPICMESFTEEQLRPKLLHCGHTICRQCLEKLLASSINGVRCPFCSKITRITSLTQLTDNLTVLKIIDTAGLSEAVGLLMCRGCGRRLPRQFCRSCGVVLCEPCREADHQPPGHCTLPVKEAAEERRRDFGEKLTRLRELTGELQRRKAALEGVSRDLQARYKAVLQEYGHEERRIQEELARSRKFFTGSLAEVEKSNSQVVEEQSYLLNIAEVQAVSRCDYFLAKIKQADVALLEETADEEEPELTASLPRELTLQDVELLKVGHVGPLQIGQAVKKPRTVNMEDSWAGEEGAASSASASVTFREMDMSPEEVAPSPRASPAKQRSSEAASGIQQCLFLKKMGAKGSTPGMFNLPVSLYVTSQSEVLVADRGNYRIQVFNRKGFLKEIRRSPSGIDSFVLSFLGADLPNLTPLSVAMNCHGLIGVTDSYDNSLKVYTMDGHCVACHRSQLSKPWGITALPSGQFVVTDVEGGKLWCFTVDRGAGVVKYSCLCSAVRPKFVTCDAEGTVYFTQGLGLNVENRQNEHHLEGGFSIGSVGPDGQLGRQISHFFSENEDFRCIAGMCVDARGDLIVADSSRKEILHFPKGGGYSVLIREGLTCPVGIALTPKGQLLVLDCWDHCVKIYSYHLRRYSTP	-0.9694
BNC2 (protein, UniProt Q6ZN30 1-1099, looked up) Zinc finger protein …: MAHLGPTPPPHSLNYKSEDRLSEQDWPAYFKVPCCGVDTSQIESEEAEVDVRERETQRDREPKRARDLTLRDSCTDNSMQFGTRTTTAEPGFMGTWQNADTNLLFRMSQQAIRCTLVNCTCECFQPGKINLRTCDQCKHGWVAHALDKLSTQHLYHPTQVEIVQSNVVFDISSLMLYGTQAVPVRLKILLDRLFSVLKQEEVLHILHGLGWTLRDYVRGYILQDAAGKVLDRWAIMSREEEIITLQQFLRFGETKSIVELMAIQEKEGQAVAVPSSKTDSDIRTFIESNNRTRSPSLLAHLENSNPSSIHHFENIPNSLAFLLPFQYINPVSAPLLGLPPNGLLLEQPGLRLREPSLSTQNEYNESSESEVSPTPYKNDQTPNRNALTSITNVEPKTEPACVSPIQNSAPVSDLTKTEHPKSSFRIHRMRRMGSASRKGRVFCNACGKTFYDKGTLKIHYNAVHLKIKHRCTIEGCNMVFSSLRSRNRHSANPNPRLHMPMLRNNRDKDLIRATSGAATPVIASTKSNLALTSPGRPPMGFTTPPLDPVLQNPLPSQLVFSGLKTVQPVPPFYRSLLTPGEMVSPPTSLPTSPIIPTSGTIEQHPPPPSEPVVPAVMMATHEPSADLAPKKKPRKSSMPVKIEKEIIDTADEFDDEDDDPNDGGAVVNDMSHDNHCHSQEEMSPGMSVKDFSKHNRTRCISRTEIRRADSMTSEDQEPERDYENESESSEPKLGEESMEGDEHIHSEVSEKVLMNSERPDENHSEPSHQDVIKVKEEFTDPTYDMFYMSQYGLYNGGGASMAALHESFTSSLNYGSPQKFSPEGDLCSSPDPKICYVCKKSFKSSYSVKLHYRNVHLKEMHVCTVAGCNAAFPSRRSRDRHSANINLHRKLLTKELDDMGLDSSQPSLSKDLRDEFLVKIYGAQHPMGLDVREDASSPAGTEDSHLNGYGRGMAEDYMVLDLSTTSSLQSSSSIHSSRESDAGSDEGILLDDIDGASDSGESAHKAEAPALPGSLGAEVSGSLMFSSLSGSNGGIMCNICHKMYSNKGTLRVHYKTVHLREMHKCKVPGCNMMFSSVRSRNRHSQNPNLHKNIPFTSVD	-0.9038
